Entries after “also recorded” stand apart in the source; their conditions may differ.
What was measured:
Assay type in all cases: biochemical
[1] = Assay for calcium-independent phospholipase A2 activity of recombinant enzymes; settings: for calcium-independent PLA2 activity: Sf9 cytosol and membrane fractions, 1-palmitoyl-2-[1-14C]-oleoyl-sn-glycerol-3-phosphocholine, relative to control; for PLA2 hydrolysis rate: affinity purified, 30 min
Excerpt: […] Reactions were terminated by addition of 100 microliters of butanol and extraction of the radiolabeled product and remaining substrate into the butanol layer by vigorous vortexing. Samples were spotted on LK6 Silica Gel 60 Å TLC plates, overlaid with oleic acid standard, dried, and developed in petroleum etherlethyl etherlacetic acid (70:30:1). The region of the plate corresponding to the oleic acid standard (visualized by iodine staining) was scraped into scintillation vials and quantified by liquid scintillation spectrometry.

[2] = Assay for triolein lipase activity of recombinant enzymes; settings: for triolein lipase specific activity: peak fractions from Co2+ TALON affinity column
Description: Assay for Triolein Lipase Activity—Sample fractions were incubated in 85 mM potassium phosphate, pH 7.0 containing 2 mM EDTA and 2 mM DTT for 15 min at 37° C. in the presence of a suspension of 100 microM [9,10-^3H(N)]-triolein (100 microCi/micromol) in 25 microM egg yolk lecithin, and 100 microM sodium taurocholate. In some reactions, BEL was added at the indicated concentrations and incubated with enzyme at room temperature for 3 min prior to the addition of radiolabeled substrate. After extraction of radiolabeled reaction products and remaining substrate into butanol, samples were spotted on TLC plates, overlaid with oleic acid standard, dried, and developed in chloroformlmethanol/NH4OH (65:25:5). The region of the plate corresponding to the oleic acid standard (visualized by iodine staining) was scraped into scintillation vials and quantified by liquid scintillation spectrometry.

[3] = Assay for acylglycerol transacylase activity; settings: affinity purified
Description: Assay for Acylglycerol Transacylase Activity—Highly purified CO^2+-TALON affinity chromatographic fractions containing iPLA2epsilon(His)6 (6xHis tag disclosed as SEQ ID NO: 29), iPLA2zeta(His)6 (6xHis tag disclosed as SEQ ID NO: 29) or iPLA2eta(His)6 (6xHis tag disclosed as SEQ ID NO: 29) (40 microliters) were incubated in 85 mM potassium phosphate, pH 7.0 (200 microliters final volume) for 15 mm at 37° C. in the presence of 10 microM [1-^14-C]-mono-olein (acyl donor), 25 microM acyl acceptor (mono-olein or diolein), 25 microM egg yolk lecithin, and 25 microM sodium taurocholate. After extraction of radiolabeled reaction products and remaining substrate into butanol, samples were spotted on TLC plates, overlaid with trileiddiolein standards, dried, and developed in petroleum etherlethyl etherlacetic acid (75:25:1). The regions of the plate corresponding to either the diolein, triolein, and fatty acid standards (visualized by iodine staining) were scraped into scintillation vials and quantified by liquid scintillation spectrometry.

[4] = 1-palmitoyl-2-[1-14C]-arachidonyl-sn-glycerol-3-phosphocholine
[5] = 1-palmitoyl-2-[1-14C]-linoleoyl-sn-glycerol-3-phosphocholine

B1: iPLA2epsilon(His)6: recombinant human calcium-independent phospholipase A2 epsilon (adiponutrin, SEQ ID NO: 1) expressed in Sf9 cells (protein, listed as Homo sapiens)
chain: MYDAERGWSLSFAGCGFLGFYHVGATRCLSEHAPHLLRDARMLFGASAGALHCVGVLSGIPLEQTLQVLSDLVRKARSRNIGIFHPSFNLSKFLRQGLCKCLPANVHQLISGKIGISLTRVSDGENVLVSDFRSKDEVVDALVCSCFIPFYSGLIPPSFRGVRYVDGGVSDNVPFIDAKTTITVSPFYGEYDICPKVKSTNFLHVDITKLSLRLCTGNLYLLSRAFVPPDLKVLGEICLRGYLDAFRFLEEKGICNRPQPGLKSSSEGMDPEVAMPSWANMSLDSSPESAALAVRLEGDELLDHLRLSILPWDESILDTLSPRLATALSEEMKDKGGYMSKICNLLPIRIMSYVMLPCTLPVESAIAIVQRLVTWLPDMPDDVLWLQWVTSQVFTRVLMCLLPASRSQMPVSSQQASPCTPEQDWPCWTPCSPEGCPAETKAEATPRSILRSSLNFFLGNKVPAGAEGLSTFPSFSLEKSLHHHHHH
modifications: C-terminal His6 tag
- calcium-independent PLA2 activity [1]: 20-50 pmol·min^−1·mg protein^−1
- PLA2 hydrolysis rate [1, 4]: 100±4 pmol arachidonic acid·min^31 1·mg protein^−1
- PLA2 hydrolysis rate [1, 5]: 57±3 pmol linoleic acid·min^−1·mg protein^−1
- triolein lipase specific activity [2]: 8 nmol oleic acid·min^−1·mg^−1 protein

B2: iPLA2zeta(His)6: recombinant human calcium-independent phospholipase A2 zeta (TTS-2.2, SEQ ID NO: 2) expressed in Sf9 cells (protein, listed as Homo sapiens)
chain: MFPREKTWNISFAGCGFLGVYYVGVASCLREHAPFLVANATHIYGASAGALTATALVTGVCLGEAGAKFIEVSKEARKRFLGPLHPSFNLVKIIRSFLLKVLPADSHEHASGRLGISLTRVSDGENVIISHFNSKDELIQANVCSGFIPVYCGLIPPSLQGVRYVDGGISDNLPLYELKNTITVSPFSGESDICPQDSSTNIHELRVTNTSIQFNLRNLYRLSKALFPPEPLVLREMCKQGYRDGLRFLQRNGLLNRPNPLLALPPARPHGPEDKDQAVESAQAEDYSQLPGEDHILEHLPARLNEALLEACVEPTDLLTTLSNMLPVRLATAMMVPYTLPLESALSFTIRLLEWLPDVPEDIRWMKEQTGSICQYLVMRAKRKLGRHLPSRLPEQVELRRVQSLPSVPLSCAAYREALPGWMRNNLSLGDALAKWEECQRQLLLGLFCTNVAFPPEALRMRAPADPAPAPADPASPQHQPAGPAPLLSTPAPEARPVIGALGLHHHHHH
modifications: C-terminal His6 tag
- calcium-independent PLA2 activity [1]: did not yield detectable amounts; also recorded: did not display measurable iPLA2 activity
- PLA2 hydrolysis rate [1, 4]: 119±6 pmol arachidonic acid·min^31 1·mg protein^−1
- PLA2 hydrolysis rate [1, 5]: 57±19 pmol linoleic acid·min^−1·mg protein^−1
- triolein lipase specific activity [2]: 9 nmol oleic acid·min^−1·mg^−1 protein

B3: iPLA2eta(His)6: recombinant human calcium-independent phospholipase A2 eta (GS2, SEQ ID NO: 3) expressed in Sf9 cells (protein, listed as Homo sapiens)
chain: MKHINLSFAACGFLGIYHLGAASALCRHGKKLVKDVKAFAGASAGFTSLVASVLLTAPEKIEECNQFTYKFAEEIRRQSFGAVTPGYDFMARLRSGMESILPPSAHFTELAQNRLHVSITNAKTRENHLVSTFSSREDLIKVLLASSFVPIYAGLKLVEYKGQKWVDFTGGLTNALPILPVGRTVTISPFSGRLDISPQDKGQLDLYVNIAKQDIMLSLANLVRLNQAFTLFPPSKRKMESLYQCGFDDTVKFLLKENWFEHHHHHH
modifications: C-terminal His6 tag
- transacylation specific activity relative to iPLA2epsilon(His)6 and iPLA2zeta(His)6 [3]: approximately 10 fold
- calcium-independent PLA2 activity [1]: did not yield detectable amounts; also recorded: did not display measurable iPLA2 activity
- PLA2 hydrolysis rate [1, 4]: 134±42 pmol arachidonic acid·min^31 1·mg protein^−1
- PLA2 hydrolysis rate [1, 5]: 77±23 pmol linoleic acid·min^−1·mg protein^−1
- triolein lipase specific activity relative to iPLA2epsilon(His)6 and iPLA2zeta(His)6 ([2]; Sf9 fractions, normalised to immunoreactive protein): 5-10 fold
- triolein lipase specific activity [2]: 52 nmol oleic acid·min^−1·mg^−1 protein

From US7473541B2, “Identification, cloning, expression, and purification of three novel human calcium-independent phospholipase A2 family members possessing triacylglycerol lipase and acylglycerol transacylase activities” (priority 2004, dated 2009)
